We go through one molecule from publication PMC4157451.

For this experiment, the target named is T1, PvuRts1I, Q52612.
T1 chain: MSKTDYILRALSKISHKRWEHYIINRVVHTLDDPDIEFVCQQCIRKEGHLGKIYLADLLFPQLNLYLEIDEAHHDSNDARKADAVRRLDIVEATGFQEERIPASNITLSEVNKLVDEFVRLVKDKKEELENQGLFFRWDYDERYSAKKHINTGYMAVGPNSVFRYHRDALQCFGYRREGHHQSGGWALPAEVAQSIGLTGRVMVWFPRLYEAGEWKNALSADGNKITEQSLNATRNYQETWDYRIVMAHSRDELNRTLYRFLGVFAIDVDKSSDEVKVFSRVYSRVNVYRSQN
As to the kind of experiment: SEC; size-exclusion chromatography of purified PvuRts1I; single peak, apparent molecular weight 89 kDa against a theoretical 34 kDa. As to conditions: remark: other sources report otherwise. For orientation: In gel filtration, larger molecules generally elute earlier.

B1: PvuRts1I, Q52612 1-293 (enzyme)
chain: MSKTDYILRALSKISHKRWEHYIINRVVHTLDDPDIEFVCQQCIRKEGHLGKIYLADLLFPQLNLYLEIDEAHHDSNDARKADAVRRLDIVEATGFQEERIPASNITLSEVNKLVDEFVRLVKDKKEELENQGLFFRWDYDERYSAKKHINTGYMAVGPNSVFRYHRDALQCFGYRREGHHQSGGWALPAEVAQSIGLTGRVMVWFPRLYEAGEWKNALSADGNKITEQSLNATRNYQETWDYRIVMAHSRDELNRTLYRFLGVFAIDVDKSSDEVKVFSRVYSRVNVYRSQN
Usually stoichiometry N stands for the number of molecules, sites or subunits per partner or assembly. As to B1, the stoichiometry N stood at 2.
